{"source": "patent US20110002926A1", "about": "(MEDICAL RESEARCH COUNCIL, published 2011)", "binders": {"B1": {"name": "RHb-h/Vl (humanized heavy chain RHb-h with chimeric AP33 light chain) (antibody, V domains shown)", "VH": "QVQLQESGPGLVKPSETLSLTCTVSGDSITSGYWNWIRQPPGRALEYMGYISYSGSTYYNLSLRSRITISRDTSKNQYSLRLSSVTAADTAMYYCALITTTTYAMDYWGQGTTVTVS", "VL": "NIVLTQSPVSLAVSLGQRATISCRASESVDGYGNSFLHWFQQKPGQPPKLLIYLASNLNSGVPARFSGSGSRTDFTLTIDPVEADDAATYYCQQNNVDPWTFGGGTKLEIK", "notes": "also called RHb-h/V1; the humanized heavy chain"}, "B2": {"name": "humanized AP33 antibody RH-C/RK2b (antibody, V domains shown)", "VH": "QVQLQESGPGLVKPSETLSLTCTVSGDSITSGYWNWIRQPPGRALEWMGYISYSGSTYYNLSLRSRITISRDTSKNQYSLRLSSVTAADTAMYYCALITTTTYAMDYWGQGTTVTVSS", "VL": "EIVLTQSPSSLSASVGDRVTITCRASESVDGYGNSFLHWFQQKPGKAPKLLIYLASNLNSGVPSRFSGSGSGTDFTLTISSLQPEDFATYYCQQNNVDPWTFGQGTKLEIK", "notes": "also called RH-C antibody"}, "B3": {"name": "humanized AP33 antibody RH-C/RK2bc (antibody, V domains shown)", "VH": "QVQLQESGPGLVKPSETLSLTCTVSGDSITSGYWNWIRQPPGRALEWMGYISYSGSTYYNLSLRSRITISRDTSKNQYSLRLSSVTAADTAMYYCALITTTTYAMDYWGQGTTVTVSS", "VL": "EIVLTQSPSSLSASVGDRVTITCRASESVDGYGNSFLHWFQQKPGKAPKLLIYLASNLNSGVPSRFSGSGSRTDFTLTISSLQPEDFATYYCQQNNVDPWTFGQGTKLEIK", "notes": "also called RH-C (peptide ELISA, paired with RK2bc)"}, "B4": {"name": "AP33 RH-B/RK2bc (antibody, V domains shown)", "VH": "QVQLQESGPGLVKPSETLSLTCTVSGDSISSGYWNWIRQPPGRALEYMGYISYSGSTYYNLSLRSRITISRDTSKNQYSLRLSSVTAADTAMYYCALITTTTYAMDYWGQGTTVTVSS", "VL": "EIVLTQSPSSLSASVGDRVTITCRASESVDGYGNSFLHWFQQKPGKAPKLLIYLASNLNSGVPSRFSGSGSRTDFTLTISSLQPEDFATYYCQQNNVDPWTFGQGTKLEIK"}, "B5": {"name": "AP33 RH-D/RK2bc (antibody, V domains shown)", "VH": "QVQLQESGPGLVKPSETLSLTCTVSGDSITSGYWNWIRQPPGRALEYIGYISYSGSTYYNLSLRSRITISRDTSKNQYSLRLSSVTAADTAMYYCALITTTTYAMDYWGQGTTVTVS", "VL": "EIVLTQSPSSLSASVGDRVTITCRASESVDGYGNSFLHWFQQKPGKAPKLLIYLASNLNSGVPSRFSGSGSRTDFTLTISSLQPEDFATYYCQQNNVDPWTFGQGTKLEIK"}}, "key": {"Peptide D3 [1]": {"target": "T1, Peptide D3 (also: C-terminal linker GSGK-biotin, biotin attachment not given here)", "T1 peptide": "QLINTNGSWHINGSGK", "experiment": "peptide ELISA, biotinylated peptide on streptavidin, COS7 supernatant, OD 655 nm"}, "E2 peptide B1 [2]": {"target": "T2, E2 peptide B1 (not fully specified (residue 16, C-terminus); also: biotin at C-terminal GSGK, site not given here)", "T2 peptide": "NLINTNGSWHINGSGK", "experiment": "peptide ELISA, biotinylated peptide on streptavidin, COS7 supernatant, OD 655 nm"}, "[3]": {"target": "T3, peptide H6 (AP33 mimotope) (not fully specified (residue 16, C-terminus); printed as VELRNLGGTWRPGSGK-biotin; also: biotin at C-terminal GSGK, site not given here)", "T3 construct": "Mimotope for AP33 identified by phage display; captured on streptavidin plates; also called mimotope H6; H6 mimotope", "T3 peptide": "VELRNLGGTWRPGSGK", "experiment": "peptide ELISA, biotinylated peptide on streptavidin, COS7 supernatant, OD 655 nm"}, "[4]": {"target": "HCV E1E2 glycoproteins of isolate 2B1.1 on HCVpp (Hepatitis C virus genotype 2)", "experiment": "cell-based or functional assay"}, "[5]": {"target": "HCV E1E2 glycoproteins of genotype 2a JFH1 on HCVpp (Hepatitis C virus genotype 2a, UniProt Q99IB8 384-750; Q99IB8 192-383)", "sequence (Q99IB8 384-750 limits assumed, chain 1 of 2)": "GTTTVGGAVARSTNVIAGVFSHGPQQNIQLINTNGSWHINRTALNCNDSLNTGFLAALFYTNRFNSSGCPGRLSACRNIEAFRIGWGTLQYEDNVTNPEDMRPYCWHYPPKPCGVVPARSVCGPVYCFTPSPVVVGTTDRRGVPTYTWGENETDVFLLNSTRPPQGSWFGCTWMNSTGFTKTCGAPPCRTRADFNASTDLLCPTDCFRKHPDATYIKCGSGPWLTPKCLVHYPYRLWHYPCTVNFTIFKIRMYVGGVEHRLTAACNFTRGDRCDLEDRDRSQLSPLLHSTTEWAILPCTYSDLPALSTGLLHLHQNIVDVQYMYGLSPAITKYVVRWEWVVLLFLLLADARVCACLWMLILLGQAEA", "sequence (Q99IB8 192-383 limits assumed, chain 2 of 2)": "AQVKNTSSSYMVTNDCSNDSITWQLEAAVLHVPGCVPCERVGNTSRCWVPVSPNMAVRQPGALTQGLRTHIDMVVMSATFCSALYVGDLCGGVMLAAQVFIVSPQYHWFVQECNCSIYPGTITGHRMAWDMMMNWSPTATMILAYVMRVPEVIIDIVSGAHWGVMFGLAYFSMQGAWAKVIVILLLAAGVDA", "experiment": "cell-based or functional assay"}, "[6]": {"target": "HCV E1E2 glycoproteins of isolate 6.5.8 on HCVpp (Hepatitis C virus genotype 6)", "experiment": "cell-based or functional assay"}, "[7]": {"target": "HCV E1E2 glycoproteins of isolate 4.21.16 on HCVpp (Hepatitis C virus genotype 4)", "experiment": "cell-based or functional assay"}, "[8]": {"target": "HCV E1E2 glycoproteins of isolate 2A2.4 on HCVpp (Hepatitis C virus genotype 2)", "experiment": "cell-based or functional assay"}, "[9]": {"target": "HCV E1E2 glycoproteins of isolate 1B5.23 on HCVpp (Hepatitis C virus genotype 1)", "experiment": "cell-based or functional assay"}, "[10]": {"target": "HCV E1E2 glycoproteins of genotype 3a F4/2-35 on HCVpp (Hepatitis C virus genotype 3a)", "experiment": "cell-based or functional assay"}, "[11]": {"target": "HCV E1E2 glycoproteins of isolate 5.15.11 on HCVpp (Hepatitis C virus genotype 5)", "experiment": "cell-based or functional assay"}, "[12]": {"target": "HCV E1E2 glycoproteins of isolate 1A20.8 on HCVpp (Hepatitis C virus genotype 1)", "experiment": "cell-based or functional assay"}, "[13]": {"target": "HCV E1E2 glycoproteins of genotype 1b (Con1) (Hepatitis C virus genotype 1b (Con1), UniProt Q9WMX2 384-746; Q9WMX2 192-383)", "sequence (Q9WMX2 384-746 limits assumed, chain 1 of 2)": "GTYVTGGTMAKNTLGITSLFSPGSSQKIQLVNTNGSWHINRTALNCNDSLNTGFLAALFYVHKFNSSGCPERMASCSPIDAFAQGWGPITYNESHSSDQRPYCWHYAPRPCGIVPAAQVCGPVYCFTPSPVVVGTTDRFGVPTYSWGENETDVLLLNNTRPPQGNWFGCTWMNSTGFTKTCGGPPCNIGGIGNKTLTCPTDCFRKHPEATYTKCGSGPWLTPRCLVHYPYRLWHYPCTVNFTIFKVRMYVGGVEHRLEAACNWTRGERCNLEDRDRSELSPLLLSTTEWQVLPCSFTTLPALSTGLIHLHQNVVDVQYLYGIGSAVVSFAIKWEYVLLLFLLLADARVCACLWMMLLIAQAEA", "sequence (Q9WMX2 192-383 limits assumed, chain 2 of 2)": "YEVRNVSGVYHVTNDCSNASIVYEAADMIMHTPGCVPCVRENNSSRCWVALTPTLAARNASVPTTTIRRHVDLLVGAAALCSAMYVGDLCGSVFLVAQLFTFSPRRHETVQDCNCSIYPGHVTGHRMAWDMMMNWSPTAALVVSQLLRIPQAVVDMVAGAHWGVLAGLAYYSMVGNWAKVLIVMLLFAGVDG", "experiment": "cell-based or functional assay"}, "[14]": {"target": "HCV E1E2 glycoproteins of genotype 2a (J6) (Hepatitis C virus genotype 2a (J6), UniProt P26660 384-750; P26660 192-383)", "experiment": "cell-based or functional assay"}, "[15]": {"target": "T4, HCV E2 as part of the E1E2 heterodimer expressed on the surface of 293T cells (Hepatitis C virus (genotype ))", "T4 construct": "whole, on cells; also called E1E2 Scatchard; cell surface expressed E2", "experiment": "Scatchard analysis, 125I-antibody competition with unlabeled antibody on E1E2-transfected 293T cells"}, "[16]": {"target": "T5, soluble HCV E2 (sE2661), HIS-tagged, baculovirus expressed (Hepatitis C virus (genotype ))", "T5 construct": "extracellular domain; also called soluble E2", "experiment": "BIAcore SPR, antibody captured on anti-human Fc chip, sE2 1.56-50 nM injected, 1:1 Langmuir fit"}, "Peptide D3 [17]": {"target": "T1, Peptide D3", "experiment": "peptide ELISA, biotinylated peptide on streptavidin, COS7 supernatant, OD 655 nm"}, "E2 peptide B1 [18]": {"target": "T2, E2 peptide B1", "experiment": "peptide ELISA, biotinylated peptide on streptavidin, COS7 supernatant, OD 655 nm"}, "[19]": {"target": "T3, peptide H6 (AP33 mimotope)", "experiment": "peptide ELISA, biotinylated peptide on streptavidin, COS7 supernatant, OD 655 nm"}, "E2 peptide B1 [20]": {"target": "T2, E2 peptide B1", "experiment": "peptide ELISA, biotinylated peptide on streptavidin, COS7 supernatant, OD 655 nm"}, "Peptide D3 [21]": {"target": "T1, Peptide D3", "experiment": "peptide ELISA, biotinylated peptide on streptavidin, COS7 supernatant, OD 655 nm"}, "E2 peptide B1 [22]": {"target": "T2, E2 peptide B1", "experiment": "peptide ELISA, biotinylated peptide on streptavidin, COS7 supernatant, OD 655 nm"}, "[23]": {"target": "T3, peptide H6 (AP33 mimotope)", "experiment": "peptide ELISA, biotinylated peptide on streptavidin, COS7 supernatant, OD 655 nm"}}, "note": "Read-outs that look alike come from different tables or passages of the source. Where no end group is shown, it is not given here."}
{"binder": "B1", "values": [{"measurement": "EC50 (read off the curve)", "setting": "Peptide D3 [1]", "result": "~0.02", "unit": "µg/mL"}, {"measurement": "binding result", "setting": "E2 peptide B1 [2]", "result": "no binding (tested: about 500 ng/ml)"}, {"measurement": "EC50 (read off the curve)", "setting": "[3]", "result": "~0.02", "unit": "µg/mL"}]}
{"binder": "B2", "values": [{"measurement": "IC50 of HCVpp infection of Huh-7 cells (luciferase)", "setting": "[4]", "result": 3, "unit": "µg/mL"}, {"measurement": "IC90 of HCVpp infection of Huh-7 cells (luciferase)", "setting": "[4]", "result": "> 15", "unit": "µg/mL"}, {"measurement": "IC50 of HCVpp infection of Huh-7 cells (luciferase)", "setting": "[5]", "result": 0.64, "unit": "µg/mL"}, {"measurement": "IC90 of HCVpp infection of Huh-7 cells (luciferase)", "setting": "[5]", "result": 7, "unit": "µg/mL"}, {"measurement": "IC50 of HCVpp infection of Huh-7 cells (luciferase)", "setting": "[6]", "result": "< 0.41", "unit": "µg/mL"}, {"measurement": "IC90 of HCVpp infection of Huh-7 cells (luciferase)", "setting": "[6]", "result": 1.8, "unit": "µg/mL"}, {"measurement": "IC50 of HCVpp infection of Huh-7 cells (luciferase)", "setting": "[7]", "result": "< 0.41", "unit": "µg/mL"}, {"measurement": "IC90 of HCVpp infection of Huh-7 cells (luciferase)", "setting": "[7]", "result": 0.92, "unit": "µg/mL"}, {"measurement": "IC50 of HCVpp infection of Huh-7 cells (luciferase)", "setting": "[8]", "result": 0.51, "unit": "µg/mL"}, {"measurement": "IC90 of HCVpp infection of Huh-7 cells (luciferase)", "setting": "[8]", "result": 6, "unit": "µg/mL"}, {"measurement": "IC50 of HCVpp infection of Huh-7 cells (luciferase)", "setting": "[9]", "result": 0.9, "unit": "µg/mL"}, {"measurement": "IC90 of HCVpp infection of Huh-7 cells (luciferase)", "setting": "[9]", "result": 8.3, "unit": "µg/mL"}, {"measurement": "IC50 of HCVpp infection of Huh-7 cells (luciferase)", "setting": "[10]", "result": "< 0.41", "unit": "µg/mL"}, {"measurement": "IC90 of HCVpp infection of Huh-7 cells (luciferase)", "setting": "[10]", "result": 2.15, "unit": "µg/mL"}, {"measurement": "IC50 of HCVpp infection of Huh-7 cells (luciferase)", "setting": "[11]", "result": 0.053, "unit": "µg/mL"}, {"measurement": "IC90 of HCVpp infection of Huh-7 cells (luciferase)", "setting": "[11]", "result": 0.82, "unit": "µg/mL"}, {"measurement": "IC50 of HCVpp infection of Huh-7 cells (luciferase)", "setting": "[12]", "result": 1.6, "unit": "µg/mL"}, {"measurement": "IC90 of HCVpp infection of Huh-7 cells (luciferase)", "setting": "[12]", "result": 15, "unit": "µg/mL"}, {"measurement": "EC50 of HCVpp entry into Huh-7.5 cells (luciferase)", "setting": "[13]", "result": 0.511, "unit": "µg/mL"}, {"measurement": "EC50 of HCVpp entry into Huh-7.5 cells (luciferase)", "setting": "[14]", "result": 0.793, "unit": "µg/mL"}, {"measurement": "neutralization of HCVcc infection of Huh-7.5 cells (RT-qPCR), fold against AP33", "setting": "[14]", "result": "≥ 4.7", "unit": "fold"}, {"measurement": "Kd", "setting": "[15]", "result": 5, "unit": "nM"}, {"measurement": "Kd", "setting": "[16]", "result": 3.8, "unit": "nM"}]}
{"binder": "B3", "values": [{"measurement": "EC50 (read off the curve)", "setting": "Peptide D3 [17]", "result": "~0.05", "unit": "µg/mL"}, {"measurement": "binding result", "setting": "E2 peptide B1 [18]", "result": "no binding (tested: about 2000 ng/ml)"}, {"measurement": "EC50 (read off the curve)", "setting": "[19]", "result": "~0.04", "unit": "µg/mL"}]}
{"binder": "B4", "values": [{"measurement": "binding result", "setting": "E2 peptide B1 [20]", "result": "no binding (tested: about 800 ng/ml)"}]}
{"binder": "B5", "values": [{"measurement": "EC50 (read off the curve)", "setting": "Peptide D3 [21]", "result": "~0.04", "unit": "µg/mL"}, {"measurement": "binding result", "setting": "E2 peptide B1 [22]", "result": "no binding (tested: about 900 ng/ml)"}, {"measurement": "EC50 (read off the curve)", "setting": "[23]", "result": "~0.04", "unit": "µg/mL"}]}
